Reference: the supplement of paper PMC5998384

What was measured:
HeLa Kyoto [1] = assay: solubility in G1/S (NP-40 vs SDS abundance) (log2 ratio); higher = more soluble; conditions: cell cycle stage: G1/S
HeLa Kyoto [2] = assay: melting temperature (median over replicates), in situ; higher = more thermally stable
HeLa Kyoto [3] = assay: solubility change mitosis vs G1/S (difference of NP-40 vs SDS log2 ratios) (log2 ratio difference); higher = more soluble in mitosis
HeLa Kyoto [4] = assay: thermal stability score vs G1/S (z-score of summed log2 fold changes over temperatures); higher = more thermally stable than in G1/S
[5] = cell cycle stage: early G1 (4.5 h after nocodazole release)
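Throughout, for melting temperature (median over replicates), in situ: HeLa Kyoto cells synchronized by double thymidine or nocodazole block, proteins quantified by TMT10plex mass spectrometry, three independent biological replicates.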
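Throughout, for solubility change mitosis vs G1/S (difference of NP-40 vs SDS log2 ratios): synchronized HeLa Kyoto cells (double thymidine block for G1/S, nocodazole release for mitosis), protein amounts in NP-40 versus SDS lysates quantified by mass spectrometry, three biological replicates.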
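Throughout, for solubility in G1/S (NP-40 vs SDS abundance): HeLa Kyoto cells arrested at G1/S by double thymidine block, proteins quantified by TMT10plex mass spectrometry in mild NP-40 versus SDS extracts, three biological replicates.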
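Throughout, for thermal stability score vs G1/S (z-score of summed log2 fold changes over temperatures): synchronized HeLa Kyoto cells, proteins quantified by TMT10plex mass spectrometry, three biological replicates, mitosis taken 0.5 h after nocodazole release, G1/S directly after double thymidine block.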

Sequence of STK26 (chain, as listed by the source): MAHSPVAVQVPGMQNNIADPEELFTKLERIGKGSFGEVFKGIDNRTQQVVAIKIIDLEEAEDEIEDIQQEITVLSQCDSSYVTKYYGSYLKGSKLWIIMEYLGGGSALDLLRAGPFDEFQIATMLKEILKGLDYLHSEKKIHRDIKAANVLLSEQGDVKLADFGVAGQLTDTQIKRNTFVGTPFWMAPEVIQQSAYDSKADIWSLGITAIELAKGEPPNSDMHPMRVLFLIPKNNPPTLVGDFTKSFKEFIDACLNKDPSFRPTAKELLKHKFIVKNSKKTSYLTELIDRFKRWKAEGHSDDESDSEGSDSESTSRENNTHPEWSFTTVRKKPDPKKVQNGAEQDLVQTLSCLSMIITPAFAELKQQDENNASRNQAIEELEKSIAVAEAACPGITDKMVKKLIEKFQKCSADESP

Row | Substance | solubility in G1/S (log2) (HeLa Kyoto [1]) | melting temperature (HeLa Kyoto [2]; cell cycle stage: G1/S) [°C] | melting temperature (HeLa Kyoto [2]; cell cycle stage: mitosis) [°C] | solubility change mitosis (log2) (HeLa Kyoto [3]) | thermal stability score (HeLa Kyoto [4]; [5]) | thermal stability score (HeLa Kyoto [4]; cell cycle stage: mitosis)
1 | MAARCSTRWLLVVVGTPRLPAISGRGARPPREGVVGAWLSRKLSVPAFASSLTSCGPRALLTLRPGVSLTGTKHNPFICTASFHTSAPLAKEDYYQILGVPRNASQKEIKKAYYQLAKKYHPDTNKDDPKAKEKFSQLAEAYEVLSDEVKRKQYDAYGSAGFDPGASGSQHSYWKGGPTVDPEELFRKIFGEFSSSSFGDFQTVFDQPQEYFMELTFNQAAKGVNKEFTVNIMDTCERCNGKGNEPGTKVQHCHYCGGSGMETINTGPFVMRSTCRRCGGRGSIIISPCVVCRGAGQAKQKKRVMIPVPAGVEDGQTVRMPVGKREIFITFRVQKSPVFRRDGADIHSDLFISIAQALLGGTARAQGLYETINVTIPPGTQTDQKIRMGGKGIPRINSYGYGDHYIHIKIRVPKRLTSRQQSLILSYAEDETDVEGTVNGVTLTSSGGSTMDSSAGSKARREAGEDEEGFLSKLKKMFTS [DNAJA3] | -0.186 | 48.4 | 50.3 | -0.0129 | -0.681 | 0.373
2 | MAKPAQGAKYRGSIHDFPGFDPNQDAEALYTAMKGFGSDKEAILDIITSRSNRQRQEVCQSYKSLYGKDLIADLKYELTGKFERLIVGLMRPPAYCDAKEIKDAISGIGTDEKCLIEILASRTNEQMHQLVAAYKDAYERDLEADIIGDTSGHFQKMLVVLLQGTREEDDVVSEDLVQQDVQDLYEAGELKWGTDEAQFIYILGNRSKQHLRLVFDEYLKTTGKPIEASIRGELSGDFEKLMLAVVKCIRSTPEYFAERLFKAMKGLGTRDNTLIRIMVSRSELDMLDIREIFRTKYEKSLYSMIKNDTSGEYKKTLLKLSGGDDDAAGQFFPEAAQVAYQMWELSAVARVELKGTVRPANDFNPDADAKALRKAMKGLGTDEDTIIDIITHRSNVQRQQIRQTFKSHFGRDLMTDLKSEISGDLARLILGLMMPPAHYDAKQLKKAMEGAGTDEKALIEILATRTNAEIRAINEAYKEDYHKSLEDALSSDTSGHFRRILISLATGHREEGGENLDQAREDAQVAAEILEIADTPSGDKTSLETRFMTILCTRSYPHLRRVFQEFIKMTNYDVEHTIKKEMSGDVRDAFVAIVQSVKNKPLFFADKLYKSMKGAGTDEKTLTRIMVSRSEIDLLNIRREFIEKYDKSLHQAIEGDTSGDFLKALLALCGGED [ANXA6] | 0.275 | 50 | 50 | -0.172 | 5.43 | 4.61
3 | MAASVEQREGTIQVQGQALFFREALPGSGQARFSVLLLHGIRFSSETWQNLGTLHRLAQAGYRAVAIDLPGLGHSKEAAAPAPIGELAPGSFLAAVVDALELGPPVVISPSLSGMYSLPFLTAPGSQLPGFVPVAPICTDKINAANYASVKTPALIVYGDQDPMGQTSFEHLKQLPNHRVLIMKGAGHPCYLDKPEEWHTGLLDFLQGLQ [ABHD14B] | 0.421 | 52.9 | 52.7 | -0.165 | -0.635 | -1.1
4 | STK26 | 0.393 | 49.1 | 49.8 | -0.0994 | 1.96 | 2.98
5 | MPKRKVSSAEGAAKEEPKRRSARLSAKPPAKVEAKPKKAAAKDKSSDKKVQTKGKRGAKGKQAEVANQETKEDLPAENGETKTEESPASDEAGEKEAKSD [HMGN1] | 0.0899 | 59 | 56.4 | 1.47 | -2.25 | -4.73
6 | MASLEVSRSPRRSRRELEVRSPRQNKYSVLLPTYNERENLPLIVWLLVKSFSESGINYEIIIIDDGSPDGTRDVAEQLEKIYGSDRILLRPREKKLGLGTAYIHGMKHATGNYIIIMDADLSHHPKFIPEFIRKQKEGNFDIVSGTRYKGNGGVYGWDLKRKIISRGANFLTQILLRPGASDLTGSFRLYRKEVLEKLIEKCVSKGYVFQMEMIVRARQLNYTIGEVPISFVDRVYGESKLGGNEIVSFLKGLLTLFATT [DPM1] | -0.0525 | 53.2 | 52.7 | 0.0355 | -2.69 | 1.91
7 | MAVARLAAVAAWVPCRSWGWAAVPFGPHRGLSVLLARIPQRAPRWLPACRQKTSLSFLNRPDLPNLAYKKLKGKSPGIIFIPGYLSYMNGTKALAIEEFCKSLGHACIRFDYSGVGSSDGNSEESTLGKWRKDVLSIIDDLADGPQILVGSSLGGWLMLHAAIARPEKVVALIGVATAADTLVTKFNQLPVELKKEVEMKGVWSMPSKYSEEGVYNVQYSFIKEAEHHCLLHSPIPVNCPIRLLHGMKDDIVPWHTSMQVADRVLSTDVDVILRKHSDHRMREKADIQLLVYTIDDLIDKLSTIVN [ABHD10] | 0.191 | 57.4 | 57.6 | -0.147 | 1.29 | -0.803
